Measurements: PMC12381655

B1: Biotin-RNA3 (A24 DNA) (XNA)
strand: AAAAAAAAAAAAAAAAAAAAAAAA
modifications: 2'-deoxy A substitutions, about 50% by design (positions in Table S2/Fig. 3A not in material)
B2: Biotin-RNA5 (A24 2'-MOE) (XNA)
strand: AAAAAAAAAAAAAAAAAAAAAAAA
modifications: 2'-O-methoxyethyl A, about 50% by design (positions in Table S2/Fig. 3A not in material)

Target: PABP (hPABPC1) (human, UniProt P11940 1-636)
Test: SPR

Sequence of PABP (hPABPC1) (P11940 whole entry): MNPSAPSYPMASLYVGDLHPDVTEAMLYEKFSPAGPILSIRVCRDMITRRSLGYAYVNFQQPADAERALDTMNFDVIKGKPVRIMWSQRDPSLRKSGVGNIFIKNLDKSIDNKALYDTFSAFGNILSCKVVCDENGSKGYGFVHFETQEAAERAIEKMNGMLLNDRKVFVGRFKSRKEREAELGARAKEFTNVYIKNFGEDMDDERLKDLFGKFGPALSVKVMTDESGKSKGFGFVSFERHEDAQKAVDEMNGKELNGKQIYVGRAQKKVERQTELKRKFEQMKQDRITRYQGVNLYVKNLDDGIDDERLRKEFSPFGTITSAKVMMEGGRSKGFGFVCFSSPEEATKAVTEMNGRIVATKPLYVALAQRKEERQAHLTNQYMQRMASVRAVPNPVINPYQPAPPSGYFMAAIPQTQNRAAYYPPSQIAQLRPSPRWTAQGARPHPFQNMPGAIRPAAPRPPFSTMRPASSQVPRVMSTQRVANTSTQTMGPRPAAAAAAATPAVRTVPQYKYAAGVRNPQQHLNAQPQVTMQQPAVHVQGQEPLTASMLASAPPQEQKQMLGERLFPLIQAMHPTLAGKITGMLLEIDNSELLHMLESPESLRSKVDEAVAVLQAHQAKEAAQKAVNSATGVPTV

Row | Binder | binding result
1 | AAAAAAAAAAAAAAAAAAAAAAAA (XNA, 2'-O-methyl A, 50% substitution (positions in Table S2/Fig. 3A not in material)) [Biotin-RNA4 (A24 2'-OMe)] | no binding
2 | B1 | no binding
3 | AAAAAAAAAAAAAAAAAAAAAAAA (XNA, 2'-fluoro A, 50% substitution (positions in Table S2/Fig. 3A not in material)) [Biotin-RNA6 (A24 2'-F)] | no binding
4 | ACUGCGCUGAUUUUUUUUUUUUUUUUUUUUUUUUUUUUUUUUUUUUUUUU (ssRNA) [Biotin-RNA8 (U40)] | no binding
5 | B2 | no binding
